Assay results reported in PMC12743511, “HSD17β11 regulates PLIN5-ATGL mediated lipolysis, but not hepatic lipid metabolism in mice” (Journal of Lipid Research, 2025).

Biological target: T1, PLIN5-CFP (perilipin 5 fused to CFP) (UniProt Q00G26 1-463)
T1 construct: perilipin 5 (PLIN5); FRET donor; source: transiently transfected (Lipofectamine 3000), in live cells
T1 sequence (looked up): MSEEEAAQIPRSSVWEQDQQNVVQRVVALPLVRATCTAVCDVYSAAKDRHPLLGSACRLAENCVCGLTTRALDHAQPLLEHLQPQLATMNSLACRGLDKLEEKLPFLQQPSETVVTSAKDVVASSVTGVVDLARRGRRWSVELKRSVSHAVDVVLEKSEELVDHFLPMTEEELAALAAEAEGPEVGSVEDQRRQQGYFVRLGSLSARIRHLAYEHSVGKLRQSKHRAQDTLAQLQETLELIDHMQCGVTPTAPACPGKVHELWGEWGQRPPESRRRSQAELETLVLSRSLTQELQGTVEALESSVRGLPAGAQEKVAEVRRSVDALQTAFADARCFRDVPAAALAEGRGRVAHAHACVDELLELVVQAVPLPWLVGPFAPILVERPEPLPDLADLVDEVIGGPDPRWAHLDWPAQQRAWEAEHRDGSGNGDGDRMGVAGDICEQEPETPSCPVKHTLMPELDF
Assay: FRET or BRET; FLIM-FRET with phasor analysis in live transfected cells, CFP donor and YFP acceptor, 37°C, 5% CO2; basal and forskolin (PKA) stimulated; ATGL-CFP with PLIN5-YFP in WT and HSD^KO cells; read-out FRET ratio (pixels with FRET / pixels without)
Details: partners not purified

B1: HSD17β11-YFP (hydroxysteroid 17β dehydrogenase 11 fused to YFP) (natural protein, UniProt Q8NBQ5 1-300, looked up)
chain: MKFLLDILLLLPLLIVCSLESFVKLFIPKRRKSVTGEIVLITGAGHGIGRLTAYEFAKLKSKLVLWDINKHGLEETAAKCKGLGAKVHTFVVDCSNREDIYSSAKKVKAEIGDVSILVNNAGVVYTSDLFATQDPQIEKTFEVNVLAHFWTTKAFLPAMTKNNHGHIVTVASAAGHVSVPFLLAYCSSKFAAVGFHKTLTDELAALQITGVKTTCLCPNFVNTGFIKNPSTSLGPTLEPEEVVNRLMHGILTEQKMIFIPSSIAFLTTLERILPERFLAVLKRKISVKFDAVIGYKMKAQ
notes: hydroxysteroid 17β dehydrogenase 11 (HSD17β11), wild type; FRET acceptor; also called HSD^WT-YFP; source: transiently transfected (Lipofectamine 3000), in live cells
fold increase in FRET ratio over donor alone: 2.5 fold
